Values belong to the binder of their own block, whether it stands above or below them.
Tests used:
recombinant human IL-17 [1] = target: T1, recombinant human IL-17 (human, UniProt Q16552); assay: SPR, BIAcore 3000, antibody captured, antigen injected
T1 sequence: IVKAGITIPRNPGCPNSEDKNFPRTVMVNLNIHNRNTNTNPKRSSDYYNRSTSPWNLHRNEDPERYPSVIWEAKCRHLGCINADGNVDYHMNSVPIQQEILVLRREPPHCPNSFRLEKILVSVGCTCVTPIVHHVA

recombinant human IL-17 [2] = target: T1, recombinant human IL-17
recombinant human IL-17 [3] = target: T1, recombinant human IL-17; assay: SPR, BIAcore 3000, antibody captured by anti-human IgG, antigen injected

Kd (recombinant human IL-17 [1]): 0.05 nM | Neutralization in NHDF, IL-6 IC50 (recombinant human IL-17 [2]): 0.21 nM
B1: murine anti-IL17 antibody (antibody, V domains shown)
VH: QVQLKESGPGLVAPSQSLSITCTVSGFSLDSYGVHWVRQPPGKGLEWLVVIWSDGTTTYNSALKSRLSITKDNSKSQVFLKMNSLQTDDTAIYYCARDTHYRLYYYAMDYWGQGTSVTVSS
VL: DVVMTQTPLSLPVSLGDQASISCRSSQSLVHSNGDTYFHWYLQKPGQSPKLLIYKVSNRFSGVPDRFSGSGSGTDFTLKINRVEAEDLGVYFCSQTTHAPFTFGSGTKLEIK

Kd (recombinant human IL-17 [3]): 0.03 nM
B2: chimeric anti-IL17 antibody (antibody, V domains shown)
VH: B1 VH
VL: B1 VL

Source: US11680110B2, “Three-dimensional structure-based humanization method” (Hoffmann-La Roche Inc., dated 2023)
